Experimental findings from patent US10925971B2, “Methods of treating PRLR positive breast cancer” (Regeneron Pharmaceuticals, Inc., priority 2016, dated 2021) are described below.

Numbering of substitutions follows the chain as printed.

For one experiment, the system named is MCF7 (MCF7/ATCC) cells. The experiment is described as follows: In vitro cell viability (cell kill) assay, nuclear counts. In kind it is cell-based, human. Conditions: MCF7 cells, approximately 3000 copies of PRLR per cell. The essentials:
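Anti-PRLR–DM1 ADCs (non-cleavable SMCC linker) or free DM1-SMe, 500 nM to 5 pM for 3 days on parental or hPRLR-overexpressing lines. HEK293: CCK8 OD450; MCF7: Hoechst nuclear counts by imaging.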

The next experiment relates to T47Dv11 tumors. Kind of experiment: T47Dv11 breast tumor xenograft, single agent and combination with fulvestrant. Format: in vivo, C.B.-17 SCID mice. The protocol:
The T47Dv11 model was used to assess the activity of H1H6958N2-DM1 in a model with significant levels of endogenous PRLR. […] Initially, 10×10^6 parental T47D cells were implanted subcutaneously (SC) into the left flank of female C.B.-17 SCID mice (Taconic, Hudson N.Y.). Tumors were supplemented with a 90-day release 1.7 mg estrogen pellet (Innovative Research America). Where T47D tumors were observed, they were excised and cut into 3 mm fragments and subsequently implanted into the left flank of separate female C.B.-17 SCID mice. Subsequent passaging was performed until a large tumor was disaggregated into a single cell suspension. The cells (named T47Dv11) from this tumor were then cultured in vitro and expanded. […] For efficacy studies, mice were implanted with 7.5×10^6 T47Dv11 cells into the left flank of female C.B.-17 SCID mice supplemented with a 90-day release 0.72 mg/pellet estrogen pellet. For MCF7 and MCF7/PRLR tumor xenografts, 2×10^7 MCF7/PRLR cells were implanted SC into the left mammary fat pad of female NCr nude mice (7-8 weeks old) supplemented with 90-day release 0.72 mg/pellet estrogen pellets. Tumors were measured with calipers twice a week for the duration of each study. Tumor volume was calculated using the formula TV=(length×width^2)/2.
After T47Dv11 tumors reached an average volume of ˜150-200 mm^3 (14-16 days post implantation), mice were randomized into treatment groups (n=8-9 mice/group) and received a single dose or three once-weekly doses of H1H6958N2-DM1, control ADC, or vehicle control, administered systemically by intravenous tail-vein injection. […] Tumor size and body weight were measured in vivo twice per week throughout the duration of the study.
Next, the combination of H1H6958N2-DM1 with the SERD fulvestrant was tested in the T47Dv11 xenograft model. Here, the activity of either agent at partially effective doses was compared against the activity of the agents in combination. First, a dose titration study of weekly administration of fulvestrant was performed in order to establish its single agent activity (FIG. 4).
For the subcutaneous tumors, average tumor size as well as tumor growth inhibition relative to the Vehicle treated group were calculated for each group. Tumors were measured with calipers twice a week until the average size of the vehicle group reached 1200 mm^3. Tumor size was calculated using the formula (length×width^2)/2. For all studies, tumor growth inhibition was calculated according to the following formula: (1−((Tfinal−Tinitial)/(Cfinal−Cinitial)))*100, where T (treated group) and C (control group) represent the mean tumor mass on the day the vehicle group reached 1000 mm^3.

B1: H1H6958N2-DM1: anti-PRLR antibody H1H6958N2 conjugated to the maytansinoid DM1 through an SMCC linker (conjugate)
VH: QVQLVESGGGVVQPGRSLRLSCGASGFTFRNYGMQWVRQGPGKGLEWVTLISFDGNDKYYADSVKGRFTISRDNSKNTLFLQMNSLRTEDTAVYYCARGGDFDYWGQGTLVTVSS
VL: DIQMTQSPSSLSASVGDRVTITCRASQDIRKDLGWYQQKPGKAPKRLIYAASSLHSGVPSRFSGSGSGTEFTLTISSLQPEDFATYYCLQHNSYPMYTFGQGTKLEIK
In the case of B1, in the experiment with MCF7 (MCF7/ATCC) cells, the “MCF7 cell killing in vitro” value is listed as “not inhibited”. Moreover, the “Final Tumor Volume (mean ± SD)” value in the experiment on T47Dv11 tumors (T47DvII tumors in SCID mice, Day 70, 2.5 mg/kg) turned out to be 386 ± 249 mm^3. Besides, in the experiment with T47Dv11 tumors (combination study, individual treatment 2.5 mg/kg single dose), the “anti-tumor activity” value is given as “Significant anti-tumor activity”. In addition, the “tumor growth” value is on record as “significantly inhibited tumor growth” with T47Dv11 tumors (single dose 2.5 or 5 mg/kg) and “tumor regression” with T47Dv11 tumors (three doses of 5 or 15 mg/kg).

B2: H1H6958N2: anti-PRLR antibody, receptor blocking, human IgG1 Fc form of H2M6958N2 of Table 1; HCVR/LCVR SEQ ID NOs 290/298 (antibody, V domains shown)
VH: B1 VH
VL: B1 VL
Regarding B2, the “tumor growth, controls” value in the experiment with T47Dv11 tumors (T47Dv11 model, dose not stated) is listed as “no effect on tumor growth”.
